From publication doi:10.1101/2024.12.12.628104 (bioRxiv, 2024) come the findings set out here.

The data set deals with the molecule itself. In words: […]; 50 uM, […], pH 6.9; […].

Usually stoichiometry N stands for the number of molecules, sites or subunits per partner or assembly.

B1: Francisella tularensis dihydrolipoyl dehydrogenase (IPD) (enzyme)
chain: MSDIKTQVVVLGSGPGGYSAAFRAADLGLEVVLVERYAEIGGVCLNVGCIPSKAMLHIAKVINEARHLESLGIIEMGGLKINRENLLKYKDGVIGKLTGGLKGMAQMRKVKIVQGYGKFTSDKELAVEAADGKVTKIAFDNCIIAAGSSVIKLPFVPEDDRIIDSTGALEMKEIPETMLVVGGGIIGLEMAQVYSELGTKITVVEFADQLMNGVDKDLVKAYQKVNSRYDVRLKTAVTAMEAKEDGIYVTMEGDHPAKDERFDRVLMAIGRKPNGKLIDAEKAGVKVDERGFIPVDKQLRTNVPHIFAIGDIVGQPMLAHKAVPEGRTAAEVISGLNHSFDPLVIPSVAYTDPEVAWVGETETSAKAKGIKYEKGVFPWAASGRSLSIDRSEGMTKILFDENHKIIGASIVGTHAGELISEAAIAIEMGCDAEDIALTVHPHPTLSESLMMATEVYEGTATDLPPQKKKK
notes: also called dihydroprolyl dehydrogenase; Francisella IPD
Take B1: the “stoichiometry N” value was 2.
